The results in this text go back to publication PMC4482198.

The assay addresses Angiotensin-II (Rattus norvegicus). Kind of assay: radioligand.

B1: Angiotensin II type-1 receptor (AT1R), P25095 (protein)
chain: MALNSSAEDGIKRIQDDCPKAGRHSYIFVMIPTLYSIIFVVGIFGNSLVVIVIYFYMKLKTVASVFLLNLALADLCFLLTLPLWAVYTAMEYRWPFGNHLCKIASASVSFNLYASVFLLTCLSIDRYLAIVHPMKSRLRRTMLVAKVTCIIIWLMAGLASLPAVIHRNVYFIENTNITVCAFHYESRNSTLPIGLGLTKNILGFLFPFLIILTSYTLIWKALKKAYEIQKNKPRNDDIFRIIMAIVLFFFFSWVPHQIFTFLDVLIQLGVIHDCKISDIVDTAMPITICIAYFNNCLNPLFYGFLGKKFKKYFLQLLKYIPPKAKSHSSLSTKMSTLSYRPSDNMSSSAKKPASCFEVE
For B1, the Kd worked out at 2.8 nM. This lies in the single-digit nanomolar range.

What is called Kd is a measure of binding affinity in units of concentration. Low values mean tighter binding, high ones weaker binding.
